Biological target: T1, CRB1-FLAG p.C1181R (human, UniProt P82279 26-1406, p.C1181R)
T1 construct: Made by site-directed mutagenesis of m1; also called CRB1 p.C1181R; CRB1-FLAG MT; source: HEK293T, transfected, in lysate; not shown: Strep-Strep-FLAG, N-terminal, kept
T1 sequence (looked up): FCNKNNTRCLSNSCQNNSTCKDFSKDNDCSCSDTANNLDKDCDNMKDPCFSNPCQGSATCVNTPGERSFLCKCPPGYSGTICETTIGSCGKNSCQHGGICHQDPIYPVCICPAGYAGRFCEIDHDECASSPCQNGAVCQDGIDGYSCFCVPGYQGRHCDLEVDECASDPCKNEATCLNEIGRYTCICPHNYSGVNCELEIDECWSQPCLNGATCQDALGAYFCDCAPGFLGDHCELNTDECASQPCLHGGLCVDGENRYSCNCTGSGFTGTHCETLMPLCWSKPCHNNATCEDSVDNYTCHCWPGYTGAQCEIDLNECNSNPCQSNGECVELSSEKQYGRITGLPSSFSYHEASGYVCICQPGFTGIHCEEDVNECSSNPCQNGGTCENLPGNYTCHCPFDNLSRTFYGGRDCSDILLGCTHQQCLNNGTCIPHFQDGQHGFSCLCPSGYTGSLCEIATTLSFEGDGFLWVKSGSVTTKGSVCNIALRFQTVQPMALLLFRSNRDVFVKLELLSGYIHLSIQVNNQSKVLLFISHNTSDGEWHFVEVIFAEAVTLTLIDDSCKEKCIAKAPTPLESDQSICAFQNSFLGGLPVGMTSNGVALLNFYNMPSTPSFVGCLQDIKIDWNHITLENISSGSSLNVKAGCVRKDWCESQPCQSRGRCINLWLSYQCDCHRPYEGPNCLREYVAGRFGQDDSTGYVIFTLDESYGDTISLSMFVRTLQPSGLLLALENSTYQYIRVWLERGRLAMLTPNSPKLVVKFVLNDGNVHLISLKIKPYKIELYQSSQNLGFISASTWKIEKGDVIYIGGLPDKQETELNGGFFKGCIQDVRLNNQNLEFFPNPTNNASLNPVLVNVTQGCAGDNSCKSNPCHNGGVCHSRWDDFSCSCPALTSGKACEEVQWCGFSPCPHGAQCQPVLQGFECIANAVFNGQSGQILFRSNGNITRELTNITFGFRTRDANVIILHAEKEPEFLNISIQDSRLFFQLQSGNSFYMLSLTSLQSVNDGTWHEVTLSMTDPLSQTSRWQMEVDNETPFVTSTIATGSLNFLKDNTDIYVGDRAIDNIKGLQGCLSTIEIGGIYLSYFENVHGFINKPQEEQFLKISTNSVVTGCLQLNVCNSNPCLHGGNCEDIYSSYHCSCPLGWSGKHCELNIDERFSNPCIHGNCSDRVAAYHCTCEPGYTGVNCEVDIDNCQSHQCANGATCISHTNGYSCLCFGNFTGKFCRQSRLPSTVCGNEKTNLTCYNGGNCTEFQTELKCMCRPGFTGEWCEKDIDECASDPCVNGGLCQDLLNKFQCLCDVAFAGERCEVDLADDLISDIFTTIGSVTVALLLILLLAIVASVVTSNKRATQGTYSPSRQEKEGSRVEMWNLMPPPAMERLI
Test: co-IP; HEK293T cells co-transfected pairwise with a FLAG and an HA construct, 48 h; lysis in TBS (30 mM Tris-HCl pH 7.4, 150 mM NaCl) with 0.5% Nonidet P40; FLAG-IP on ANTI-FLAG M2 Affinity Gel 60-90 min at 4°C, elution with FLAG peptide; Western blot with HA and FLAG antibodies; for mutants HA/FLAG signal in eluates relative to WT, three biological replicates
Settings: partners not purified

B1: Human canonical CRB2 (Crumbs homolog 2) (natural protein)
chain: not shown
notes: Crumbs homolog 2, human, cDNA NM_173689; Stood as bait (FLAG copy) and as prey (HA copy) in the pairwise co-IP matrix; each copy carries only one of the two tags; The FLAG copy was the bait of the mass spectrometry pull-downs; also called CRB2-FLAG; CRB2-HA; source: HEK293T, transfected, in lysate (co-IP); HEK293T, transfected, FLAG-IP on beads, washed and purified with 0.01% SDS (retina …)
  percent reduction of the interaction relative to CRB1 WT: 19%

Reference: article PMC10992996, “Human CRB1 and CRB2 form homo- and heteromeric protein complexes in the retina” (Life Science Alliance, 2024)
